Test results taken from a protein production outcome set (Wang et al. 2014).

Test: label from the status in PepcDB records

Sequence	protein production
MTGVIAGPSVLGAVSSGSIESLAELGVILLLFTIGLEMSAERFGEFRRTALIGGTLQICLTVSVVTILTMVLGLSPGKAVFLGFLISLSSTAVVLKVLQDFHETEAPHGQASLAILIFQDVAAVPMILTVPFLGGVVGDPSSALGTLLTAGAVLPWEPCIGKVLVPRLFDVVAATGSREIFLLTVILVCASVTWLTGEVGLSPALGAFLVGSIVANTEYAHRAQGTILPFQEVFLSFFFVSLGMLLDLRFFLDHIYLIVLAVIGVLMIKVVMNSLVGFVMGYSARVVVLLGLVLAQIGEFSFILSETGLRYGLMDRLTFQAFLSVSLITMAITPFLISLSPRISERIVRADLHPRIKNGRVYRRPSVDLRDHLIIIGMGITGRRLADTCEDHGIPYIGLDVNPEAVRRARDEGLNVYYGDGTHLAVLRHFNVPEAAVMVIAIADYRSTVHAIHEARALNEGMKIIARIRGFENTEMLYTAGADVVVSEKREATRRISDEIFSCYSGVCELEE	failed
MTSSTETTATTPQVAVNDIGNEEAFLAAIDETIKYFNDGDIVDGVIVKVDRDEVLLDIGYKTEGVIPSRELSIKHDVDPNEVVAVGDEIEALVLQKEDKEGRLILSKKRAQYERAWGTIEKIKEEDGIVTGTVIEVVKGGLILDIGLRGFLPASLVEMRRVRDLQPYVGKELEAKIIELDKNRNNVVLSRRAWLEQTQSEVRQTFLTTLQKGQVRSGVVSSIVNFGAFVDLGGVDGLVHVSELSWKHIDHPSEVVEVGQEVTVEVLDVDMDRERVSLSLKATQEDPWQQFARTHQIGQVVPGKVTKLVPFGAFVRVDEGIEGLVHISELAERHVEIPEQVVQVNDEIFVKVIDIDLERRRISLSLKQANEAFGADPSTVEFDPTLYGMAASYDDQGNYIYPEGFDPETNDWLEGYETQREAWETQYAEAQTRFEQHQAQVIKSREADEKAAAEGVDTAGAAPAASGGGGGGSYSSEGGDNSGALASDEALAALREKLAGGQS	failed
MTTAKRDTYTPETLLSVAVQVFIERGYDGTSMEHLSKAAGISKSSIYHHVTGKEELLRRAVSRALDELFGILDEEHARVGTAAERLEYVVRRMVEVLMAELPYVTLLLRVRGNTGTERWALERRREFDHRVAALLKDAAAEGDVRADVEVRLATRLVFGMINSIVEWYRPEGPDGRSDASGASGVSGAGEREVVDAVARLVFGGLRKAS	not failed
QALPEKALDSFIVTGLSKRGWTTWLTAIVDSRVVAIAPFVIDLLDTRAALEHMYQSYGGNWPIAFTPYYLDEVDKKLDTASFAKLMQIIDPLQYMGTEYQSRLSIPKYIINASGDDFYVPDNTDFYYDKLPGEKALRVAPNASHSGIKAFSEQSLISFVNR	failed
MDPEETSVYLDYYYATSPNSDIRETHSHVPYTSVFLPVFYTAVFLTGVLGNLVLMGALHFKPGSRRLIDIFIINLAASDFIFLVTLPLWVDKEASLGLWRTGSFLCKGSSYMISVNMHCSVLLLTCMSVDRYLAIVWPVVSRKFRRTDCAYVVCASIWFISCLLGLPTLLSRELTLIDDKPYCAEKKATPIKLIWSLVALIFTFFVPLLSIVTCYCCIARKLCAHYQQSGKHNKKLKKSIKIIFIVVAAFLVSWLPFNTFKFLAIVSGLRQEHYLPSAILQLGMEVSGPLAFANSCVNPFIYYIFDSYIRRAIVHCLCPCLKNYDFGSSTETSDSHLTKALSTFIHAEDFARRRKRSVSL	failed
MAKGYWIAQVDVRDSERYKDYVSTAKPAFERFGANFLARGGSVTELEGTARARNVVIEFPSVQHAIDCYNSPEYQAAAKIRQEVADAEMMIVEGI	not failed
MKIIGIIQARTGSKRLKNKVLLKLGDRCILEILLERLKKSKKLDDIIVATTIKKEDNAIVELCNSLGVNVFRGSEKDVLDRFYNASKFYSGDVIVRITGDNPLTSIELIDKQVEYLLKNNFDYVSTKNIILGLSSEVFTFDALEKAWKNAKEKYQREHVTPYIYENPNLFKVFYLEPPEYLKREGIRLTIDTIKDFKLYLELQKHFDLINVDIRQIIDFLDKNPQIKNINSNVRQKSYREVEE	failed
MQSDKVLNLPAGYFGIVLGTIGMGFAWRYASQVWQVSHWLGDGLVILAMIIWGLLTSAFIARLIRFPHSVLAEVRHPVLSSFVSLFPATTMLVAIGFVPWFRPLAVCLFSFGVVVQLAYAAWQTAGLWRGSHPEEATTPGLYLPTVANNFISAMACGALGYTDAGLVFLGAGVFSWLSLEPVILQRLRSSGELPTALRTSLGIQLAPALVACSAWLSVNGGEGDTLAKMLFGYGLLQLLFMLRLMPWYLSQPFNASFWSFSFGVSALATTGLHLGSGSDNGFFHTLAVPLFIFTNFIIAILLIRTFALLMQGKLLVRTERAVLMKAEDKE	not failed
MSLTEYVHGYSEREALRLSEQAETLEKLLHHDTVYPPGAKVLEAGCGIGAQTVILAKNNPDAEITSIDISPESLEKARENTEKNGIKNVKFLQANIFSLPFEDSSFDHIFVCFVLEHLQSPEEALKSLKKVLKPGGTITVIEGDHGSCYFHPEGKKAIEAWNCLIRVQAYMKGNSLVGRQIYPLLQESGFEKIRVEPRMVYIDSSKPELVDGFILKTIIPMVEGVKEQSLKMQIIKEEEWEKGIEELHKTAEHGGTFCYTFFKGWGTKEGHHHHHH	not failed
TEALRMEREALLAEMGVAVREDGGTVGVFSPKKTPHLVNLNEDPLMSECLLYHIKDGVTRVGQVDMDIKLTGQFIREQHCLFRSIPQPDGEVVVTLEPCEGAETYVNGKLVTEPLVLKSGNRIVMGKNHVFRFNHPEQARLE	failed
MRLPPRLALSVLAGRGPSCILGSGAATRKDWQERNRRSFSDLYTQPLPDCDFEESSSWTHKSRSEPTRHIACKKSARNLVRDLLEHQNPSHQLILECNPGPGILTGALLKAGARVVAFESEKMFIPHLESLRKNADGELQVVHCDFFKIDPRYQELVRPDVNSHTIFQNLGIKAVPWSAGVPIKVFGILPNKHERRLLWKILFDLYSCESIYRYGRVELNMFISEKEFRVRC	failed
MIPYLYVLAAAFLWGTSFVAGKIAFGVADAPLIVLARFAMAGLFWLPVFCRSVRSVPSSRWGALLLLSFLMIPATFLLQFMGLQYTSATSATLMIGFEPLMVMLVGWLIWREQMTALHLLLGTVALAGVLLVMGWPSGANFLGCLLVLLSTVVVAIWVRWSKIWMQSLSVNAFTALTTVLGTIMLIPFALFLTNDWQVNLSTQGASALLYLGVGCSLGAGWLWNMGMRSIPANAGGMFLALEPIFGVIFAVALLYEPLGATTLAGIGLVVIPVLVISVLPVLQARRLPEAC	failed
MFKEVGEPNFPKLEEEVLAFWKREKIFQKSVENRKGGPRYTVYEGPPTANGLPHVGHAQARSYKDLFPRYKTMRGYYAPRRAGWDTHGLPVELEVEKKLGLKSKREIEAYGIERFNQACRESVFTYEKEWEAFTERIAYWVDLENAYATLEPTYIESIWWSLKNLFDRGLLYRDHKVVPYCPRCGTPLSSHEVALGYKEIQDPSVYVRFPLKEPKKLGLEKASLLIWTTTPWTLPGNVAAAVHPEYTYAAFQVGDEALILEEGLGRKLLGEGTPVLKTFPGKALEGLPYTPPYPQALEKGYFVVLADYVSQEDGTGIVHQAPAFGAEDLETARVYGLPLLKTVDEEGKLLVEPFKGLYFREANRAILRDLRGRGLLFKEESYLHSYPHCWRCSTPLMYYATESWFIKNTLFKDELIRKNQEIHWVPPHIKEGRYGEWLKNLVDWALSRNRYWGTPLPIWVCQACGKEEAIGSFQELKARATKPLPEPFDPHRPYVDQVELACACGGTMRRVPYVIDVWYDSGAMPFASLHYPFEHEEVFRESFPADFIAEGIDQTRGWFNFLHQLGVMLFGSIAFKNVICHGLILYEMGQKMSKSKGNVVDPWDIIREFGADALRWYIYVSAPPEADRRFGPNLVRETVRDYFLTLWNVYSFFVTYANLDRPDLKNPPPPEKRPEMDRWLLARMQDLIQRVTEALEAYDPTTSARALRDFVVEDLSQWYVRRNRRRFWKNEDALDREAAYATLYEALVLVATLAAPFTPFLAEVLWQNLVRSVRPEAKESVHLADWPEADPALADEALVAQMRAVLKVVDLARAARAKSGVKTRTPLPLLLVTAPTALEREGLKRFAHEIAEELNVKEVRVLEPGEEILSYRVLPNLKLLGRKYGKLVPKIREALQRERERAAALALKGEAIPLEVEGEALTLLPEEVLLEAEAPKGYQALEKDGYVAALKVEVTEALRMEGLARDLIRLLQQARKDMGLKVSDRIRVGYEAEGPYLEALKRHGPWIAEEVLATAFGEGLFGGFEARVEDEEGKAVFHLARAE	not failed
MKKKALLPLFLGIMIFLAGCDYSTPEKQDGFFFNTFVQPMKHLLQWLGNDVFHNNFGLAIIVLVLFIRLILLPFMLSNYKNSHMMREKMKVAKPEVDGIQEKVKRARTQEEKMAANQELMEVYKKYDMNPMKSMLGCLPILIQMPIIMGLYFVLKDKLVNGLSEHPHFLWFNLTKPDIWITVIAGVLYFIQAVVSSKTMPQEQRQMGYMMMVISPIMIIWISLQASSALGLYWSVSALFLVIQTHFANIYYSKLAKKEVQPFIEKYEREHNPYSKKKGKNTQVVSKKNKK	failed
MLRNKAFVVRLYPNAAQAERINRTLGCARFVYNHFLARRIESYRQDGKGMIYAATDKALTLLKREEGTAWLAEVDKFALQQSLRDLERAYQNFFRTAKKSGKKVGFPKFKKKRTGEAYRTQFTNNNIEIGEGKLKLPKLGWVKTRGQRDMQGKILNVTVRRIHEGHYEASVLCEVEIPYLPAAPKFAAGVDVGIKDFAIVTDGKGEFEHHANPKYYRSSLRRLRKAQKTLSRRKKGSARYGRAKTTLARIHKRVANKRQDFIHKLTTSLVREYEITCTEHLKPDNMRKNRRLALSVSDAGWGEFIRQLEYKATWYGRLVSKISPYFPSSQICHDCGFKNPAVKNLAVREWTCPNCGETHDRDENAALNIRREGLVAAGMSDTQNAHGDCIRPTSVGSGLRSENHATSVVLEHHHHHH	not failed
GKRSTMLLRAITPQDWDAILQIQEECYSQLDPEPLHVLQSKWHVSPQSCFVFEVNESVVGYCLAHPWTTNMPPALYEPITHLPKADTLYLHDIAISAKAQGLGAGSKALMRLKQLADRFNLGSLSLVAVQGADSYWRKMGFTPKAIDKCLGSYTDDAMYMIYKL	failed
MAEEKIKKSLLAADDSDDEYSRGDTVSDQTELSSILDKLSLEPKTEKKKLLVLSLSGLLLHRVHKKELRKKPKNRSPDASCGPNLVYKRPFAEEFMKFCLERFEVGIWSSACELVSSLNILIVTGPRECTDSGYKTLENRYKPLFFKDLSKVFKCFKGFSASNTIFIDDEPYKALRNPDNTGLFPMSYDASNIKDNLLDPEGELCSYLEGLAKSSDVQAYIKVHSFGRPMIDSSHPDWSFYSNVSKIVS	failed
MRRHTSSLDDQSLWRVALDYARDAAVIIDDGGHICYVNQAAERIWGIGRADLVGSHSDCLGVDAIQPEPVAGSHLTNAASDLPLAIDITSRDNRSITAELTRSTIRVDGLNYTMLTVRDVT	failed
MASSEGLASVDPWSFRQNFNIDSWLLSDSFSHDSDILAKALHRSISTSTESSPLSPSSFFDSSTAAVDFSPPQTLSNVSFGSDPEIPAASALGLGKRKRGPGVSGGKQTKRRSRVSNKKSQTTFITADAANFRQMVQQVTGAKFLGSSNSIFAPIVKPEPHRLASRLPPSCGNLDRSSAVPTLDTSSFLSNHHQENIITDLGAPTGSFHHQSSAGTTTANVGGGSSAVELDSYPSFPTLESWKVM	failed
MIIRIKHYGEVKIEDSKNLLLNLIENRIGIDNICNGKGTCGKCKVRFRQGVPEATSADLRYLSVEELEEGVRLACQVKPQKGMEIDVTLSNSFDRKLEHHHHHH	not failed
MACIHIESSHPPAWKTHSVQENKPANADDISNTTLPEHHDGGDGGIQETWAAIGDSGGRGGGYFAGESRKKLEKKKSQVLLEGYALDDQDDLTRAKSLTDDDLEELKGCLDLGFGFSYDEIPELCNTLPALELCYSMSQKFLDDKQQNHHKSQEEDDSSPPPTTTAPIANWKISSPAELESIFIFEPEKDRLCKNEVSAIVR	failed
